The results in this text go back to article PMC9894162.

This series addresses GST-NS5 (Zika virus, UniProt A0A1B0XTC8 2521-3423). In words: EMSA.

B1: genomic Sox2 DNA duplex (dsDNA)
DNA 1: TCAGCAAGCGCCTGGGCGCCGAGTGGAAACTTTTG
DNA 2: CAAAAGTTTCCACTCGGCGCCCAGGCGCTTGCTGA
For B1, the binding result is “binds”.
